Measurements: the RNAGym collection of RNA variant scans (doi:10.1073/pnas.2313332121)

B1: TPR t1 (parent)
chain: GACCAAUCUGCCCUCAGAGCUCGAGAACAUCUUCGGAUGCAGAGGAGGCAGGCUUCGGUGGCGCGAUAGCGCCAACGUCCUCAACCUCCAAUGCAUCCCACCACAUGAUGAUGCCUGAAGAGCCUUGGUUUUUUG

Variants of: B1
Experiment: polymerase ribozyme fitness, log enrichment relative to wild type (log ratio); higher = more active; in vitro selection for triplet polymerase activity
Summary of the method: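 Mutant libraries of each subunit of a heterodimeric triplet polymerase ribozyme were built by PCR and transcribed. Each library went through one round of in vitro selection in triplicate: annealing with biotinylated primer, partner subunit and triplets, frozen incubation at −7 °C, gel excision of extended constructs, streptavidin-bead capture and RT-PCR. Input and output libraries were Illumina-sequenced; only genotypes with ≥10 input reads and ≥1 read per output were kept. Fitness is log2(genotype enrichment/wild-type enrichment), using inverse-variance-weighted replicate averages.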

Variant | polymerase ribozyme fitness (log ratio)
C15G C20U C62A G117U | -3.55
C15G | -2.16
C15A | -1.85
C15G G25U C34G G60C U109G | -6.48
C15A G61A C85U C98G A105G U109A C124U | -6.62
C15A C53U A66U | -4.71
C15A C28G G61A G120A | -2.11
C15A G63A G127C | -4.4
C15G G39U C72A | -3.5
C15A C98U | -3.62
C15G G57A U132C | -3.99
C15G A95C A119U | -3.82
C15G G61A | -1.86
C15A G48U A50G C115U | -4.63
C15G C73G C88U U116G | -3.52
U14G G19A G42A C56A G93C | -5.15
C15A G47U C80U C86A | -3.28
U14A G61A A90C A91C | -4.3
C15A A29C U78A | -4.3
U14A C88G C99U C123U U131G U134A | -3.82
C15G U38C C124G | 0.313
C15G U109A G120U C123A | -6.64
U14C C20U G58U C62G | -5.26
U14G C40A G42C C80U G120U | -3.6

Variant | polymerase ribozyme fitness (log ratio)
C15A C40U G120C | -0.554
U14G C76A | -2.76
U14A U78C | -2.86
C15G G17A | -3.99
U14C G69U A83U C114G C123G | -1.4
C15A C97A G120A U130A | -4.97
U14C U21A G61A G117C | -3.39
U14G G52A G93A | -3.09
C15A G47U C73A C115A A121C U133C | -5.41
C15A U59A U126A | -4.53
U14C G93U U112A | -2.43
U14A G47A C102A A121C | -2.83
C15G A26C U54G G71U C114U | -5.95
C15A C98U G117A | -4.11
U14C C53A | -1.96
U14A G71A | -2.77
C15A C80U | -1.68
C15A A111U | -5.13
C15A G39C C114G | -4.44
U14G G35A A46G U96A C114U | -5.86
C15A G63U | -3.03
C15G U78G C115U U126A | -2.34
U14G C49A U96A | -3.85
C15G G93A | -3.21

Variant | polymerase ribozyme fitness (log ratio)
C15G G93C | -4.1
C15G U112G G122A | -1.95
C15G U78G | -2.92
C15G U59A G63C | -2.33
C15A C88A | -1.56
C15A C88G | -2.59
U14A G57C G58A G61A A105C U109G | -6.86
U14C G63C | -2.35
U14C A18G C49G G61A G69A G113A | -5.84
C15A C86A U129A | -4.12
U14C G60C U96A | -3.46
U14G C72A U106G | -3.74
C15A U59A | -2.31
U14C A83C | -2.26
C15G A83G G120C | -2.3
C15A C62U | -2.04
U14C C72U U78G C115U U116C | -3.05
C15A U78C C88A C102A | -5.8
U14G C49U G93C C101A | -4.35
C15A G135U | -2.9
C15G A18U G63C A91C | -4.66
C15A G117A U129C | -2.87
C15G C70G U132C | -6.73
C15A A91G C123A | -2.45

Variant | polymerase ribozyme fitness (log ratio)
C15A U87G A91C U112C G128C G135U | -5.85
U14C C49U U130A | -2.74
C15G C20A G69U U81A C124A | -1.08
C15A A29U C73U C115U U131A | -2.29
C15A G69A C104U | -4.06
U14G C40G G69A | -3.52
C15A C124G | 0.792
C15G C104U U132A | -1.67
C15A G36U G42A C49G G60U | -6.51
U14C C49G A84C U106G U133G | -5.32
U14C A90C | -3.39
C15A U129A | -3.18
C15A G77U G122A C123A | -2.19
C15A A27C U55A | -5.44
C15A C20G G71U A91C C98G C123U U133G | -4.96
C15G C73A C82G G117U U130C | -0.6
C15G C56U | -2.17
C15G U32C G36C C49G G120C | -3.15
C15A G42A C53A C101U | -4.53
U14G C15G | -5.02
U14G G45C | -3.41
U14C G36U C53G G61U | -2.63
C15A C20U G58A U87G A90C C114G | -4.17
C15A C64U G110C | -6.12

Variant | polymerase ribozyme fitness (log ratio)
U14G A91C C97U | -4.05
C15A A37U G57A G61C | -3.97
C15A A37G G45U G93U U112C G122C C123G U125A | -5.64
C15A G71A | -2.63
U14G A50C G63C C94A | -3.63
C15A A118G | -2.6
U14G C85G A95C C101G | -6.61
C15A U132A | -2.04
C15A U132C | -1.46
C15A C94U G120C | -0.704
C15G A66U | -4.55
C15A A43U | -3.28
C15G C49U U106A | -3.74
U14C A84C | -2.42
C15A A18U C53A U112C G127A | -5.64
U14A C124A U130A | 0.939
U14A G127U | -3.57
C15A G113A | -3.63
C15A C62U A84G C94U | -3.06
C15G U32C C49U U87G | -3.89
C15A A37C C49A C72G | -2.75
C15A G39C A41U C101U | -3.77
U14G C15G U33G C40A C114G U130C | -5.88
U14G U125A | -2.09

Variant | polymerase ribozyme fitness (log ratio)
C15A G122A | -1.85
C15G G48C C85U G122A | -3.3
U14G G71U G93U A105U | -6.14
C15G G47A C70G G117C | -3.82
U14G G71U | -2.33
C15G G17U C86A | -5.4
C15A A18U C98U G107C G113U U125G | -6.57
C15G G36A | -4.46
C15A A27C | -4.33
U14A G25U C34U G52U C56A A90G G93C C114G A121C G135A | -6.59
U14C C72A A111U | -6.13
C15G C53G C56G G61A | -3.41
C15A G39A U87G U112G | -2.16
C15A G47U C123U | -2.56
C15A C70G | -3.97
C15A A24U C70U G77C G110C | -6.25
C15A C64U | -2.36
C15A A43G U96C U112C | -2.05
C15A A27C U55G A111U | -6.51
U14C G127A U129A | -3.26
U14G C72U G135U | -2.55
U14G C73U A90G C124A | 1.54
C15A U92G | -4.55
U14G C15U A37U C56A A66C | -5.37

Variant | polymerase ribozyme fitness (log ratio)
U14G A37U A41G G47U C86A U87C | -4.82
C15G G69U C102A | -1.71
C15G C49G G71U A74U U106C C124U | -5.29
U14G C62U C73U | -2.29
C15A C101U U112A | -1.08
U14C C56G A119U | -3.8
C15G G44U | -3.71
C15A C123A | -1.02
C15A C123U | -1.1
C15A A41U U129A | -4.72
C15A C94U C114G U126A | -5.6
C15A A26G G44U C89A G120C | -5.42
U14A C124A | -0.31
C15G C82G G117U U130C | -0.86
C15A G52C G63U G93U C97U | -5.64
C15G A16U G61U G122U C123U | -2.55
U14C C102U | -3.54
U14A U54A | -2.74
C15G G52U C76U U96C C99U A111G | -7.38
U14G G61U C86G C115G | -5.92
U14G A27U C94A | -5.54
U14G A27G A29G G36C C40U C56A G63U C115U G122A | -6.64
U14G C89G | -3.56
